From the supplement of paper PMC7877785
± gives the uncertainty stated by the source.

Test: self-splicing fitness, log relative to wild type (ln ratio); higher = more splicing; Tetrahymena group I intron in knt gene, E. coli kanamycin selection, DiMSum; sequences stand for … in CUCUCU…GGAGGGAAAAGUUAUCAGGCAUGCACCUGGUAGCUAGUCUUUAAACCAAUAGAUUGCAUCGGUUUAAAAGGCAAGACCGUCAAAUUGCGGGAAAGGGGUCAACAGCCGUUCAGUACCAAGUCUCAGGGGAAACUUUGAGAUGGCCUUGCAAAGGGUAUGGUAAUAAGCUGACGGACAUGGUCCUAACCACGCAGCCAAGUCCUAAGUCAACAGAUCUUCUGUUGAUAUGGAUGCAGUUCACAGACUAAAUGUCGGUCGGGGAAGAUGUAUUCUUCUCAUAAGAUAUAGUCGGACCUCUCCUUAAUGGGAGCUAGCGGAUGAAGUGAUGCAACACUGGAGCCGCUGGGAACUAAUUUGUAUGCGAAAGUAUAUUGAUUAGUUUUGGAGUACUCGUGGUCG
Summary of the method: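 The eight P1ex-region nucleotides of an intron in the knt kanamycin-resistance gene on pET-22b(+) were all randomised and the library put into E. coli BL21(DE3). Six replicate transformations were grown overnight at 37°C or 30°C on LB agar with or without 25 μg/mL kanamycin, together with 100 μg/mL carbenicillin, 50 μM IPTG and 0.2% rhamnose. Colonies were pooled and amplicon-sequenced on an Illumina HiSeq 2500. Fitness from DiMSum is the error-weighted combination of wild-type-normalised replicate fold changes, kanamycin over none.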

Row | Sequence | self-splicing fitness (ln) (30 °C) | self-splicing fitness (ln) (37 °C)
1 | CCCCAGCAAUAUUACGUCUU | -3.9 ± 0.12 | -2.04 ± 0.12
2 | AGUGAGCAAUAUUACGUGUG | -2.69 ± 0.21 | –
3 | CAAAAGCAAUAUUACGUUCA | -1.67 ± 0.11 | -0.976 ± 0.1
4 | ACGAAGCAAUAUUACGUUGA | -2.14 ± 0.17 | -1.22 ± 0.12
5 | ACGCAGCAAUAUUACGAGUU | -3.67 ± 0.13 | -1.6 ± 0.11
6 | AGAGAGCAAUAUUACGAGCA | -2.68 ± 0.46 | -1.31 ± 0.27
7 | CUGUAGCAAUAUUACGCUGU | -3.78 ± 0.36 | -2.53 ± 0.27
8 | GGGAAGCAAUAUUACGUGAA | -2.39 ± 0.18 | -0.692 ± 0.17
9 | UUAGAGCAAUAUUACGGGAC | -3.75 ± 0.36 | -2.8 ± 0.22
10 | AUGGAGCAAUAUUACGCUUA | -2.53 ± 0.33 | -0.194 ± 0.21
11 | UGUGAGCAAUAUUACGCUGU | -3.47 ± 0.18 | -2.66 ± 0.19
12 | AGUUAGCAAUAUUACGACAU | 0.112 ± 0.013 | 0.071 ± 0.033
13 | CAAAAGCAAUAUUACGGCCC | -2.01 ± 0.31 | -1.06 ± 0.3
14 | UGAGAGCAAUAUUACGUACG | -2.03 ± 0.13 | -1.59 ± 0.22
15 | CGCAAGCAAUAUUACGGUUC | -4.01 ± 0.23 | -2.6 ± 0.16
16 | GACUAGCAAUAUUACGGAAU | -2.12 ± 0.12 | -1.91 ± 0.14
17 | AUAAAGCAAUAUUACGUUCA | 0.0367 ± 0.069 | 0.0639 ± 0.1
18 | CGGGAGCAAUAUUACGCGUU | -1.22 ± 0.23 | –
19 | CUACAGCAAUAUUACGGCGG | -1.34 ± 0.084 | -1.47 ± 0.094
20 | UUUCAGCAAUAUUACGAAUG | -0.511 ± 0.086 | -0.0774 ± 0.12
21 | AGUUAGCAAUAUUACGUAAA | -2.85 ± 0.28 | -1.4 ± 0.26
22 | GCUGAGCAAUAUUACGUGGG | -2.02 ± 0.16 | -2.36 ± 0.26
23 | AGGAAGCAAUAUUACGCCAC | -2.13 ± 0.24 | -2.64 ± 0.41
24 | GCAGAGCAAUAUUACGCUAG | -1.83 ± 0.44 | -1.79 ± 0.2

Row | Sequence | self-splicing fitness (ln) (30 °C) | self-splicing fitness (ln) (37 °C)
25 | GGGAAGCAAUAUUACGGUCA | -0.346 ± 0.1 | -0.237 ± 0.11
26 | CGAUAGCAAUAUUACGUACG | -1.83 ± 0.097 | -1.05 ± 0.1
27 | GAGAAGCAAUAUUACGAGUA | -2.04 ± 0.2 | -1.73 ± 0.12
28 | CAGUAGCAAUAUUACGGUUG | -1.52 ± 0.065 | -0.838 ± 0.083
29 | GAUAAGCAAUAUUACGAGCC | -1.5 ± 0.17 | -1.27 ± 0.23
30 | CGGUAGCAAUAUUACGCUUC | – | -0.894 ± 0.24
31 | AACUAGCAAUAUUACGCGGA | -2.25 ± 0.1 | -1.18 ± 0.086
32 | CGGAAGCAAUAUUACGGUUA | -1.96 ± 0.18 | -2.25 ± 0.2
33 | CAAGAGCAAUAUUACGUUUG | -2.75 ± 0.21 | -2.37 ± 0.24
34 | CCUGAGCAAUAUUACGGAGU | -3.26 ± 0.31 | -1.92 ± 0.18
35 | GUAUAGCAAUAUUACGGAAA | -2.1 ± 0.43 | -2.81 ± 0.32
36 | AGUGAGCAAUAUUACGUACC | -0.317 ± 0.2 | -0.261 ± 0.28
37 | AGAUAGCAAUAUUACGACCG | -1.01 ± 0.17 | 0.121 ± 0.32
38 | CGUCAGCAAUAUUACGGACC | -0.189 ± 0.17 | 0.292 ± 0.17
39 | AUCGAGCAAUAUUACGUCAG | -3.36 ± 0.21 | -2.99 ± 0.22
40 | GUAGAGCAAUAUUACGUCCC | -1.01 ± 0.37 | 0.144 ± 0.41
41 | CCCUAGCAAUAUUACGUCAG | -3.8 ± 0.18 | -2.91 ± 0.18
42 | CACUAGCAAUAUUACGGACU | -2.87 ± 0.18 | -1.13 ± 0.14
43 | GUCUAGCAAUAUUACGAACG | -1.83 ± 0.2 | -1.13 ± 0.23
44 | AACCAGCAAUAUUACGCGUU | -3.77 ± 0.15 | -1.56 ± 0.15
45 | CGACAGCAAUAUUACGAGCG | -2.02 ± 0.13 | -0.549 ± 0.099
46 | GCUAAGCAAUAUUACGAUCA | -1.29 ± 0.11 | -0.823 ± 0.093
47 | UCUUAGCAAUAUUACGCCGA | -2.03 ± 0.28 | -0.379 ± 0.38
48 | ACAUAGCAAUAUUACGGCGA | -0.475 ± 0.09 | -0.0687 ± 0.1
